Data reported in US20220153862A1 (CSPC MEGALITH BIOPHARMACEUTICAL, published 2022).

Biological target: T1, human Trophoblast cell surface antigen 2 (TROP2) (human, UniProt P09758 27-274, limits assumed)
T1 construct: Analyte in the SPR experiments and immunogen; also called human TROP2
T1 sequence: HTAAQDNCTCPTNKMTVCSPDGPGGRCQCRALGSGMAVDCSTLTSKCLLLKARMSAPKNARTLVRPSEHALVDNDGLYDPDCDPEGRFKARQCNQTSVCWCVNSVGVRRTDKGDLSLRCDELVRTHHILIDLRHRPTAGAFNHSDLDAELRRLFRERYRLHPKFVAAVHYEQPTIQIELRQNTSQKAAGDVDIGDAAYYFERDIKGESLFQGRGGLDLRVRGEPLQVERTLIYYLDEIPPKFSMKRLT
Assay: SPR affinity ranking, human TROP2

B1: HC2/LC5 (antibody, human IgG1, kappa, V domains shown)
VH: QVQLVQSGAEVKKPGASVKVSCKASGYTFTDYSINWVRQAPGQGLEWMGVISTYYGDASYNQKFKGRVTMTRDTSTSTVYMELSSLRSEDTAVYYCARYGDGYNQFDYWGQGTLVTVSS
VL: DIQMTQSPSSLSASVGDRVTITCRVSESVDSYGNNFMHWYQQKPGKAPKLLIYRASNLESGVPSRFSGSGSGTDFTFTISSLQPEDIATYYCQQSYEDPYTFGGGTKLEIKR
notes: Humanized anti-TROP2 antibody
- Kd: 0.052 nM
- koff: 7.38e-05 s⁻¹
- kon: 1.42e+06 M⁻¹ s⁻¹

B2: HC5/LC5 (antibody, human IgG1, kappa, V domains shown)
VH: EVQLVQSGAEVKKPGESLKISCKGSGYTFTDYSINWVRQMPGKGLEWMGVISTYYGDASYNQKFKGQVTISADKSISTAYLQWSSLKASDTAMYYCARYGDGYNQFDYWGQGTLVTVSS
VL: DIQMTQSPSSLSASVGDRVTITCRVSESVDSYGNNFMHWYQQKPGKAPKLLIYRASNLESGVPSRFSGSGSGTDFTFTISSLQPEDIATYYCQQSYEDPYTFGGGTKLEIKR
notes: Humanized anti-TROP2 antibody
- Kd: 0.238 nM
- koff: 0.000338 s⁻¹
- kon: 1.42e+06 M⁻¹ s⁻¹

B3: HC2/LC1 (antibody, human IgG1, kappa, V domains shown)
VH: QVQLVQSGAEVKKPGASVKVSCKASGYTFTDYSINWVRQAPGQGLEWMGVISTYYGDASYNQKFKGRVTMTRDTSTSTVYMELSSLRSEDTAVYYCARYGDGYNQFDYWGQGTLVTVSS
VL: DIVMTQSPDSLAVSLGERATINCRVSESVDSYGNNFMHWYQQKPGQPPKLLIYRASNLESGVPDRFSGSGSGTDFTLTISSLQAEDVAVYYCQQSYEDPYTFGQGTKLEIKR
notes: Humanized anti-TROP2 antibody
- Kd: 0.0375 nM
- koff: 5.78e-05 s⁻¹
- kon: 1.54e+06 M⁻¹ s⁻¹

B4: HC2/LC3 (antibody, human IgG1, kappa, V domains shown)
VH: QVQLVQSGAEVKKPGASVKVSCKASGYTFTDYSINWVRQAPGQGLEWMGVISTYYGDASYNQKFKGRVTMTRDTSTSTVYMELSSLRSEDTAVYYCARYGDGYNQFDYWGQGTLVTVSS
VL: DIVMTQSPLSLPVTPGEPASISCRVSESVDSYGNNFMHWYLQKPGQSPQLLIYRASNLESGVPDRFSGSGSGTDFTLKISRVEAEDVGVYYCQQSYEDPYTFGGGTKVEIKR
notes: Humanized anti-TROP2 antibody
- Kd: 0.104 nM
- koff: 0.000141 s⁻¹
- kon: 1.36e+06 M⁻¹ s⁻¹

B5: HC2/LC4 (antibody, human IgG1, kappa, V domains shown)
VH: QVQLVQSGAEVKKPGASVKVSCKASGYTFTDYSINWVRQAPGQGLEWMGVISTYYGDASYNQKFKGRVTMTRDTSTSTVYMELSSLRSEDTAVYYCARYGDGYNQFDYWGQGTLVTVSS
VL: EIVLTQSPATLSLSPGERATLSCRVSESVDSYGNNFMHWYQQKPGQAPRLLIYRASNLESGIPARFSGSGSGTDFTLTISSLEPEDFAVYYCQQSYEDPYTFGGGTKVEIKR
notes: Humanized anti-TROP2 antibody
- Kd: 0.0957 nM
- koff: 0.00014 s⁻¹
- kon: 1.46e+06 M⁻¹ s⁻¹

B6: HC4/LC2 (antibody, human IgG1, kappa, V domains shown)
VH: QVQLVQSGAEVKKPGSSVKVSCKASGYTFTDYSINWVRQAPGQGLEWMGVISTYYGDASYNQKFKGRVTITADESTSTAYMELSSLRSEDTAVYYCARYGDGYNQFDYWGQGTLVTVSS
VL: DVVMTQSPLSLPVTLGQPASISCRVSESVDSYGNNFMHWFQQRPGQSPRRLIYRASNLESGVPDRFSGSGSGTDFTLKISRVEAEDVGVYYCQQSYEDPYTFGGGTKVEIKR
notes: Humanized anti-TROP2 antibody
- Kd: 5.34 nM
- koff: 0.000984 s⁻¹
- kon: 184000 M⁻¹ s⁻¹

B7: HC3/LC2 (antibody, human IgG1, kappa, V domains shown)
VH: QVQLVQSGAEVKKPGASVKVSCKASGYTFTDYSINWVRQAPGQRLEWMGVISTYYGDASYNQKFKGRVTITRDTSASTAYMELSSLRSEDTAVYYCARYGDGYNQFDYWGQGTLVTVSS
VL: DVVMTQSPLSLPVTLGQPASISCRVSESVDSYGNNFMHWFQQRPGQSPRRLIYRASNLESGVPDRFSGSGSGTDFTLKISRVEAEDVGVYYCQQSYEDPYTFGGGTKVEIKR
notes: Humanized anti-TROP2 antibody
- Kd: 10.4 nM
- koff: 0.00177 s⁻¹
- kon: 169000 M⁻¹ s⁻¹

B8: HC1/LC4 (antibody, human IgG1, kappa, V domains shown)
VH: QVQLVQSGAEVKKPGASVKVSCKASGYTFTDYSINWVRQAPGQGLEWMGVISTYYGDASYNQKFKGRVTMTTDTSTSTAYMELRSLRSDDTAVYYCARYGDGYNQFDYWGQGTMVTVSS
VL: EIVLTQSPATLSLSPGERATLSCRVSESVDSYGNNFMHWYQQKPGQAPRLLIYRASNLESGIPARFSGSGSGTDFTLTISSLEPEDFAVYYCQQSYEDPYTFGGGTKVEIKR
notes: Humanized anti-TROP2 antibody
- Kd: 0.0911 nM
- koff: 0.000126 s⁻¹
- kon: 1.38e+06 M⁻¹ s⁻¹

B9: HC3/LC4 (antibody, human IgG1, kappa, V domains shown)
VH: QVQLVQSGAEVKKPGASVKVSCKASGYTFTDYSINWVRQAPGQRLEWMGVISTYYGDASYNQKFKGRVTITRDTSASTAYMELSSLRSEDTAVYYCARYGDGYNQFDYWGQGTLVTVSS
VL: EIVLTQSPATLSLSPGERATLSCRVSESVDSYGNNFMHWYQQKPGQAPRLLIYRASNLESGIPARFSGSGSGTDFTLTISSLEPEDFAVYYCQQSYEDPYTFGGGTKVEIKR
notes: Humanized anti-TROP2 antibody
- Kd: 0.14 nM
- koff: 0.000192 s⁻¹
- kon: 1.37e+06 M⁻¹ s⁻¹

B10: HC4/LC4 (antibody, human IgG1, kappa, V domains shown)
VH: QVQLVQSGAEVKKPGSSVKVSCKASGYTFTDYSINWVRQAPGQGLEWMGVISTYYGDASYNQKFKGRVTITADESTSTAYMELSSLRSEDTAVYYCARYGDGYNQFDYWGQGTLVTVSS
VL: EIVLTQSPATLSLSPGERATLSCRVSESVDSYGNNFMHWYQQKPGQAPRLLIYRASNLESGIPARFSGSGSGTDFTLTISSLEPEDFAVYYCQQSYEDPYTFGGGTKVEIKR
notes: Humanized anti-TROP2 antibody
- Kd: 0.052 nM
- koff: 8.88e-05 s⁻¹
- kon: 1.71e+06 M⁻¹ s⁻¹

B11: HC3/LC5 (antibody, human IgG1, kappa, V domains shown)
VH: QVQLVQSGAEVKKPGASVKVSCKASGYTFTDYSINWVRQAPGQRLEWMGVISTYYGDASYNQKFKGRVTITRDTSASTAYMELSSLRSEDTAVYYCARYGDGYNQFDYWGQGTLVTVSS
VL: DIQMTQSPSSLSASVGDRVTITCRVSESVDSYGNNFMHWYQQKPGKAPKLLIYRASNLESGVPSRFSGSGSGTDFTFTISSLQPEDIATYYCQQSYEDPYTFGGGTKLEIKR
notes: Humanized anti-TROP2 antibody
- Kd: 0.114 nM
- koff: 0.000151 s⁻¹
- kon: 1.32e+06 M⁻¹ s⁻¹

B12: HC4/LC3 (antibody, human IgG1, kappa, V domains shown)
VH: QVQLVQSGAEVKKPGSSVKVSCKASGYTFTDYSINWVRQAPGQGLEWMGVISTYYGDASYNQKFKGRVTITADESTSTAYMELSSLRSEDTAVYYCARYGDGYNQFDYWGQGTLVTVSS
VL: DIVMTQSPLSLPVTPGEPASISCRVSESVDSYGNNFMHWYLQKPGQSPQLLIYRASNLESGVPDRFSGSGSGTDFTLKISRVEAEDVGVYYCQQSYEDPYTFGGGTKVEIKR
notes: Humanized anti-TROP2 antibody
- Kd: 0.0916 nM
- koff: 0.000178 s⁻¹
- kon: 1.95e+06 M⁻¹ s⁻¹

B13: HC2/LC2 (antibody, human IgG1, kappa, V domains shown)
VH: QVQLVQSGAEVKKPGASVKVSCKASGYTFTDYSINWVRQAPGQGLEWMGVISTYYGDASYNQKFKGRVTMTRDTSTSTVYMELSSLRSEDTAVYYCARYGDGYNQFDYWGQGTLVTVSS
VL: DVVMTQSPLSLPVTLGQPASISCRVSESVDSYGNNFMHWFQQRPGQSPRRLIYRASNLESGVPDRFSGSGSGTDFTLKISRVEAEDVGVYYCQQSYEDPYTFGGGTKVEIKR
notes: Humanized anti-TROP2 antibody
- Kd: 865 nM
- koff: 0.0251 s⁻¹
- kon: 24900 M⁻¹ s⁻¹

B14: HC3/LC1 (antibody, human IgG1, kappa, V domains shown)
VH: QVQLVQSGAEVKKPGASVKVSCKASGYTFTDYSINWVRQAPGQRLEWMGVISTYYGDASYNQKFKGRVTITRDTSASTAYMELSSLRSEDTAVYYCARYGDGYNQFDYWGQGTLVTVSS
VL: DIVMTQSPDSLAVSLGERATINCRVSESVDSYGNNFMHWYQQKPGQPPKLLIYRASNLESGVPDRFSGSGSGTDFTLTISSLQAEDVAVYYCQQSYEDPYTFGQGTKLEIKR
notes: Humanized anti-TROP2 antibody
- Kd: 0.067 nM
- koff: 0.00011 s⁻¹
- kon: 1.65e+06 M⁻¹ s⁻¹

B15: HC3/LC3 (antibody, human IgG1, kappa, V domains shown)
VH: QVQLVQSGAEVKKPGASVKVSCKASGYTFTDYSINWVRQAPGQRLEWMGVISTYYGDASYNQKFKGRVTITRDTSASTAYMELSSLRSEDTAVYYCARYGDGYNQFDYWGQGTLVTVSS
VL: DIVMTQSPLSLPVTPGEPASISCRVSESVDSYGNNFMHWYLQKPGQSPQLLIYRASNLESGVPDRFSGSGSGTDFTLKISRVEAEDVGVYYCQQSYEDPYTFGGGTKVEIKR
notes: Humanized anti-TROP2 antibody
- Kd: 0.107 nM
- koff: 0.000159 s⁻¹
- kon: 1.49e+06 M⁻¹ s⁻¹

B16: HC1/LC3 (antibody, human IgG1, kappa, V domains shown)
VH: QVQLVQSGAEVKKPGASVKVSCKASGYTFTDYSINWVRQAPGQGLEWMGVISTYYGDASYNQKFKGRVTMTTDTSTSTAYMELRSLRSDDTAVYYCARYGDGYNQFDYWGQGTMVTVSS
VL: DIVMTQSPLSLPVTPGEPASISCRVSESVDSYGNNFMHWYLQKPGQSPQLLIYRASNLESGVPDRFSGSGSGTDFTLKISRVEAEDVGVYYCQQSYEDPYTFGGGTKVEIKR
notes: Humanized anti-TROP2 antibody
- Kd: 0.121 nM
- koff: 0.000196 s⁻¹
- kon: 1.62e+06 M⁻¹ s⁻¹

B17: HC4/LC1 (antibody, human IgG1, kappa, V domains shown)
VH: QVQLVQSGAEVKKPGSSVKVSCKASGYTFTDYSINWVRQAPGQGLEWMGVISTYYGDASYNQKFKGRVTITADESTSTAYMELSSLRSEDTAVYYCARYGDGYNQFDYWGQGTLVTVSS
VL: DIVMTQSPDSLAVSLGERATINCRVSESVDSYGNNFMHWYQQKPGQPPKLLIYRASNLESGVPDRFSGSGSGTDFTLTISSLQAEDVAVYYCQQSYEDPYTFGQGTKLEIKR
notes: Humanized anti-TROP2 antibody
- Kd: 0.0457 nM
- koff: 7.74e-05 s⁻¹
- kon: 1.69e+06 M⁻¹ s⁻¹

B18: HC5/LC3 (antibody, human IgG1, kappa, V domains shown)
VH: EVQLVQSGAEVKKPGESLKISCKGSGYTFTDYSINWVRQMPGKGLEWMGVISTYYGDASYNQKFKGQVTISADKSISTAYLQWSSLKASDTAMYYCARYGDGYNQFDYWGQGTLVTVSS
VL: DIVMTQSPLSLPVTPGEPASISCRVSESVDSYGNNFMHWYLQKPGQSPQLLIYRASNLESGVPDRFSGSGSGTDFTLKISRVEAEDVGVYYCQQSYEDPYTFGGGTKVEIKR
notes: Humanized anti-TROP2 antibody
- Kd: 0.182 nM
- koff: 0.000266 s⁻¹
- kon: 1.46e+06 M⁻¹ s⁻¹

B19: HC5/LC2 (antibody, human IgG1, kappa, V domains shown)
VH: EVQLVQSGAEVKKPGESLKISCKGSGYTFTDYSINWVRQMPGKGLEWMGVISTYYGDASYNQKFKGQVTISADKSISTAYLQWSSLKASDTAMYYCARYGDGYNQFDYWGQGTLVTVSS
VL: DVVMTQSPLSLPVTLGQPASISCRVSESVDSYGNNFMHWFQQRPGQSPRRLIYRASNLESGVPDRFSGSGSGTDFTLKISRVEAEDVGVYYCQQSYEDPYTFGGGTKVEIKR
notes: Humanized anti-TROP2 antibody
- Kd: 1.54 nM
- koff: 0.000402 s⁻¹
- kon: 261000 M⁻¹ s⁻¹
